We go through one molecule from paper PMC6152768, “Dynamic Allostery Modulates Catalytic Activity by Modifying the Hydrogen Bonding Network in the Catalytic Site of Human Pin1” (Molecules : A Journal of Synthetic Chemistry and Natural …, 2017).

Square brackets hold non-standard residues; d marks the D form. Ends that are not written are not given here. pT = C[C@@H](OP(=O)(O)O)[C@H](N)C(=O)O

The experiment concerns the target wild-type human Pin1 PPIase domain (human, UniProt Q13526 1-163). The experiment in a line: ITC; 1.5 uL injections of 10 mM Cdc25C phosphor-peptide into 200 uL of 0.2 mM wild-type or S138A Pin1 PPIase domain in the cell; Microcal Auto iTC200; single-site fit with the stoichiometry fixed to n = 1; in triplicate; buffer and temperature not stated. The note with it: both partners purified. On the technique in general: In ITC the heat of successive injections is recorded.

Sequence of wild-type human Pin1 PPIase domain (Q13526 whole entry, the tested form may be a part): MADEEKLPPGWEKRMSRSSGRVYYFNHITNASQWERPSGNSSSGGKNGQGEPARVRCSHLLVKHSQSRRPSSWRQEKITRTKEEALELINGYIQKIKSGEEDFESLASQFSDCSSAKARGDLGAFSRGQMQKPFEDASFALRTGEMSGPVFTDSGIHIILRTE

B1: phosphor-peptide Cdc25C (EQPLpTPVTDL) (peptide)
peptide: EQPL[pT]PVTDL
notes: Phosphopeptide named Cdc25C; also called phosphorylated peptide Cdc25C; Cdc25C phosphor-peptide; source: bought: Funakoshi (Tokyo, Japan), used without further purification
As for B1, the Kd (commonly the equilibrium constant for the complex coming apart) is 1810 ± 290 µM and the stoichiometry N (as a rule, a count of units in the complex or per binding partner) came to 1 ± 0.001.
